We go through one molecule from patent US20040001822A1, “Y1-isolated molecules comprising epitopes containing sulfated moieties, antibodies to such epitopes, and uses thereof” (priority 2000, published 2004).

Experiment [1] concerns RP-HPLC KG-1 membrane fraction. As to the kind of experiment: Western blot with Y1 on enzyme-treated KG-1 membrane fraction. Format: binding, human. From the text:
(§1) Y1 ligand was further characterized using enzymatic treatments with proteases, glycanases, and […]; Western blotting with Y1, anti-CD42 antibodies, anti-CD162 antibodies and 181, immunoprecipitation using Y1 and anti-CD162 antibodies; FACS analysis using Y1 anti-CD162 antibodies; and sequencing.
(§2) The table below summarizes the biochemical experiments preformed to characterize and localize the Y1 binding site on KG-1 cells.
(§3) Western Blot Analysis with Y1 on SDS-PAGE Reducing Gels
(§4) The nitrocellulose membrane was blocked using 5% skim milk for one hour at room temperature. The membrane was then washed 3 times for 5 minutes each with 0.05% Tween 20 in PBS at room temperature. The membrane was incubated with 5 μg/ml Y1-biotin (or 181-biotin) in 2% skim milk in PBS for one hour at room temperature. The membrane was then washed 3 times for 5 minutes each with cold 0.05% Tween 20 in PBS in the cold room (about 4 to about 10° C.). The membrane was then incubated in the cold room with a 1:1000 dilution of SAV-HRP (streptavidin-HRP) (at a final concentration of […]) in 2% skim milk, 0.05% Tween. The dilution was carried out at room temperature (about 25° C.), then the diluted SAV-HRP was cooled on ice for 10-15 minutes before use. The incubation was carried out for 1 hour with gentle shaking. After the incubation with SAV-HRP, the membrane was washed, as above. The membrane was then incubated with Super Signal mixture (Pierce) for 5 minutes as directed in the commercial protocol, then excess solution was dried. The membrane was use to expose it to X-ray film (Fuji), and the film was developed.
On the technique in general: In western blotting, separated proteins are transferred to a membrane and probed.

The next experiment deals with Glycocalicin (GC). The experiment can be described thus: Western blot with Y1 on enzyme-treated glycocalicin. Format: binding, human. The conditions noted are these: O-Sialo glycoprotein endopeptidase, 30′ at 37° C.
Source text: as §1, §2, §3
as §4, with “The membrane was then incubated with Super Signal mixture (Pierce) for 5 minutes as directed in the commercial protocol, then excess solution was dried. The membrane was use to expose it to X-ray film (Fuji), and the film was developed.” left out

A short description of experiment [2]: Western blot with Y1 on aryl-sulfatase-treated heparin-BSA. Format: binding. The conditions noted are these: 18 hr at 22° C.
Source text: as §1, §2, §3
as §4, with “The membrane was then incubated with Super Signal mixture (Pierce) for 5 minutes as directed in the commercial protocol, then excess solution was dried. The membrane was use to expose it to X-ray film (Fuji), and the film was developed.” left out

The next experiment concerns KG-1 cells. As to the kind of experiment: Binding competition of Y1 forms on KG-1 cells. Details: species or system human. The following applies: Y1 IgG-Biotin 50 ng; Y1 scFvs 5 μg and 10 μg. The source says:
To compare the binding of the scFv monomer (also referred to as CONY1) with the Y1 dimer, binding competition experiments were done in vitro on KG-1 cells. In addition, these experiments also compared the binding of the full Y1 IgG to the scFv Y1 monomers. To perform this study, a Y1 IgG was labeled with biotin.

A further experiment deals with primary leukemia cells. As to the kind of experiment: FACS binding of Y1 to primary leukemia cells of patients. Details: species or system human. As to the method:
Samples provided from hospitals. Patients sample 30 μl/tube. Add 5 μl/tube of CD33-APC (for AML) or CD19-APC (for B-CLL) or CD38-APC (for Multiple Myeloma). Add 5 μl/tube of CD45-PerCp and 5 μl of scFv-Y1 or control scFv-N31 or CD162-PE (KPL1). Incubate tubes 30 minutes at 4° C. with low shaking. Wash by adding 2 ml PBS and spin 5 minutes at 1200 rpm. Discard supernatant.
For a one step assay continue with the lysis step:
Add 500 μl BD Lysine solution diluted 1:10 with ddH2O (300 μl to patient sample). Vortex at high speed and incubate 12 minutes at 4° C. Wash as above. Discard supernatant. And add 500 μl PBS. The samples are read in the FACS using blood sample acquisition setup according to international standards.
For two or more assays: working buffer is PBS+1% BSA+0.05% sodium azide. Incubations and wash as above.
Lysis of the red blood cells is the final step in the assay, followed by resuspension with 500 μl PBS.

Experiment [3] has as its target T1, natural human platelet derived glycocalicin (Homo sapiens, UniProt P07359).
T1 construct: glycocalicin (soluble, extracellular fragment of GPIbα); from tissue; host or cells: human platelets
As to the kind of experiment: Western blot on natural human platelet derived glycocalicin. The following applies: semi-purified human platelet derived glycocalicin. Type of experiment: binding. The procedure: The DNA fragment encoding for glycocalicin (GC, amino acid 1 to amino acid 493 of GPIbα ) was cloned into an IPTG inducible prokaryotic vector cassette. E. coli (BL21 DE3) cells harboring the newly constructed plasmid were grown at 37° C. to O.D. 0.7-0.8, than at 37° C. for 3 hours for in the presence of IPTG for induction.
SDS-polyacrylamide gel loaded either with semi-purified human platelet derived glycocalicin (“GC”) or with E. coli cell lysates (“total”) derived from induced and non-induced cells were analyzed. Western blot analysis was performed with biotinylated Y1-scfv, polyclonal rabbit anti-human glycocalicin antibody, commercially available mouse anti-human CD42 monoclonal antibody (SZ2 Immunotech, PM640 Serotec, HIP1 Pharmigen, AN51 DAKO), and polyclonal antibody against the N-terminus of GPIbα (Sc-7071, Santa Cruz).
The DNA fragment encoding the N-terminal soluble part of human platelet GP1b-glycocalicin (GC, amino acid 1 to amino acid 493) was cloned into an IPTG inducible prokaryotic vector cassette. E. coli (BL21 DE3) cells harboring the newly constructed plasmid were grown at 37° C. to O.D. 0.7-0.8, than at 37° C. for 3 hours for in the presence of IPTG for induction. SDS-polyacrylamide gel loaded either with semi-purified human platelet derived GC or with E. coli cell lysates (total protein content) derived from induced and non-induced cells were analyzed. […]

B1: Y1 scFv: fully human scFv clone binding platelets and myelogenous leukemia cells, SEQ ID NO: 25 (protein, listed as Homo sapiens)
scFv: MKYLLPTAAAGLLLLAAQPAMAEVQLVESGGGVVRPGGSLRLSCAASGFTFDDYGMSWVRQAPGKGLEWVSGINWNGGSTGYADSVKGRFTISRDNAKNSLYLQMNSLRAEDTAVYYCARMRAPVIWGQGTLVTVSRGGGGSGGGGSGGGGSSELTQDPAVSVALGQTVRITCQGDSLRSYYASWYQQKPGQAPVLVIYGKNNRPSGIPDRFSGSSSGNTASLTITGAQAEDEADYYCNSRDSSGNHVVFGGGTKLTVLGAAAEQKLISEEDLNGAA
Take B1: the “Reactivity with Y1” value in experiment [1] (Mocarhagin, 7′ at 37° C.) was “No”; in experiment [1] (O-Sialo glycoprotein endopeptidase, 30′ at 37° C., SDS-PAGE reducing gel) it was “Reactivity”; in experiment [1] (O-Sialo glycoprotein endopeptidase, 4 hr at 37° C.) it was “No”; in experiment [1] (aryl-sulfatase, 18 hr at 22° C.), “No”; in the experiment with Glycocalicin (GC), “Enhanced”; in experiment [2] it was “Binds to”. In the experiment on KG-1 cells, the “competition with Y1 IgG-Biotin” value is reported as “partially competed”. For the same molecule, the “% Positive” value in the experiment on primary leukemia cells (patients with AML) was determined as 80%; in the experiment on primary leukemia cells (patients with B-Leukemia) it was 67%; in the experiment with primary leukemia cells (patients with Multiple Myeloma) it was 100%. Besides, the figures for the “Number Positive” value with primary leukemia cells (patients with AML), with primary leukemia cells (patients with B-Leukemia) and in the experiment on primary leukemia cells (patients with Multiple Myeloma) were 60/75, 29/43 and 16/16, respectively. Also, the results for the “recognition in Western blot” value in experiment [3] and in experiment [3] (listed as scFv Y1) were “recognized” and “recognized only the natural human derived GC”, respectively.
